Measurements published in patent publication US20200024322A1 (Eli Lilly, published 2020).
Numbered stars: 1 amine (or outer) side, 2 acyl side, 3 side chain; on linkers, the order of the positions; unused ones are H or OH. Square brackets hold non-standard residues; d marks the D form. Side chains are listed from the residue outwards. Ends that are not written are not given here. * marks the point of attachment. C20 diacid = O=C(O)CCCCCCCCCCCCCCCCCCC(=O)*; γGlu = O=C(O)[C@H](CCC(=O)[*:2])N[*:1]; AEEA = NCCOCCOCC(=O)O; Aib = CC(C)(N)C(=O)O

T1: human GIP receptor (human, UniProt P48546 22-466)
T1 construct: whole, on cells; Used as crude membranes of stably transfected CHO cells; also called hGIPR
T1 sequence (looked up): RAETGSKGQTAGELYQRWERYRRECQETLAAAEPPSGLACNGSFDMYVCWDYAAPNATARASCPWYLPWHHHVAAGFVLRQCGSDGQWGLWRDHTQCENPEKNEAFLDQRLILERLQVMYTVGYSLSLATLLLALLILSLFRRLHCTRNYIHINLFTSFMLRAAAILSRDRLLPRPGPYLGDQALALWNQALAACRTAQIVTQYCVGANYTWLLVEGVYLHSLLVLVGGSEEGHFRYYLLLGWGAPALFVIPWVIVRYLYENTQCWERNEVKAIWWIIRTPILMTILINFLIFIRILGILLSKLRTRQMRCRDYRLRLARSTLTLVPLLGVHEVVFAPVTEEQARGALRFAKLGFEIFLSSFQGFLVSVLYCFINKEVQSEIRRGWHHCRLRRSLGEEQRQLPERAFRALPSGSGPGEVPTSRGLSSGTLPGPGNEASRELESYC


Columns and labels:
human GIP receptor = target: T1, human GIP receptor; assay: SPA, [125I]-GIP displacement, hGIPR membranes
human glucagon receptor = target: T2, human glucagon receptor (human, UniProt P47871 26-477); assay: SPA, [125I]-Gcg displacement, hGcgR membranes
T2 construct: whole, on cells; Used as crude membranes of stably transfected HEK293 cells; also called hGcgR; hGLcgR

human GLP-1 receptor = target: T3, human GLP-1 receptor (human, UniProt P43220 24-463); assay: SPA, [125I]-GLP-1 displacement, hGLP-1R membranes
T3 construct: whole, on cells; Used as crude membranes of stably transfected HEK293 cells; also called hGLP1R; hGLP-1R

T2 sequence (P47871 26-477): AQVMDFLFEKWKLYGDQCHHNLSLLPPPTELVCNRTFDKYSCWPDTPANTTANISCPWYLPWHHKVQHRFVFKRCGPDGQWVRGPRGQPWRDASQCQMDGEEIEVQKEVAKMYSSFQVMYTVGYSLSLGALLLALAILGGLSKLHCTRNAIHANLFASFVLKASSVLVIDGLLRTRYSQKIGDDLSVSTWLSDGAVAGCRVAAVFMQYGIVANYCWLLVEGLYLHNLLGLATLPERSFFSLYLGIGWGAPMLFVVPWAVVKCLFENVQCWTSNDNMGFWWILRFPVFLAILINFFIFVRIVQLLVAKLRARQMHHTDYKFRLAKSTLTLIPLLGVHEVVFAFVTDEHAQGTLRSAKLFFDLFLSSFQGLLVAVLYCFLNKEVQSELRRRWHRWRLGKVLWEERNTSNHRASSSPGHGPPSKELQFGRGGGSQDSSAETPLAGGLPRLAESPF

Binder	Ki (human GIP receptor) [nM]	Ki (human glucagon receptor) [nM]	Ki (human GLP-1 receptor) [nM]
Y[Aib]EGTFTSDYSILLDKIAQ[Aib]AFIEYLIEGGPSSGK([AEEA-AEEA-γGlu-C20 diacid])PPPS-NH2 (N-terminus assumed; SMILES CC[C@H](C)[C@H](NC(=O)[C@H](CCCCN)NC(=O)[C@H](CC(=O)O)NC(=O)[C@H](CC(C)C)NC(=O)[C@H](CC(C)C)NC(=O)[C@@H](NC(=O)[C@H](CO)NC(=O)[C@H](Cc1ccc(O)cc1)NC(=O)[C@H](CC(=O)O)NC(=O)[C@H](CO)NC(=O)[C@@H](NC(=O)[C@H](Cc1ccccc1)NC(=O)[C@@H](NC(=O)CNC(=O)[C@H](CCC(=O)O)NC(=O)C(C)(C)NC(=O)[C@@H](N)Cc1ccc(O)cc1)[C@@H](C)O)[C@@H](C)O)[C@@H](C)CC)C(=O)N[C@@H](C)C(=O)N[C@@H](CCC(N)=O)C(=O)NC(C)(C)C(=O)N[C@@H](C)C(=O)N[C@@H](Cc1ccccc1)C(=O)N[C@H](C(=O)N[C@@H](CCC(=O)O)C(=O)N[C@@H](Cc1ccc(O)cc1)C(=O)N[C@@H](CC(C)C)C(=O)N[C@H](C(=O)N[C@@H](CCC(=O)O)C(=O)NCC(=O)NCC(=O)N1CCC[C@H]1C(=O)N[C@@H](CO)C(=O)N[C@@H](CO)C(=O)NCC(=O)N[C@@H](CCCCNC(=O)COCCOCCNC(=O)COCCOCCNC(=O)CC[C@H](NC(=O)CCCCCCCCCCCCCCCCCCC(=O)O)C(=O)O)C(=O)N1CCC[C@H]1C(=O)N1CCC[C@H]1C(=O)N1CCC[C@H]1C(=O)N[C@@H](CO)C(N)=O)[C@@H](C)CC)[C@@H](C)CC) [Example 44]	0.0516	121	10.6
Y[Aib]EGTFTSDYSILLDKIAQ[Aib]AFIEYLIEGGPSSGAPK([AEEA-AEEA-γGlu-C20 diacid])PS-NH2 (N-terminus assumed; SMILES CC[C@H](C)[C@H](NC(=O)[C@H](CCCCN)NC(=O)[C@H](CC(=O)O)NC(=O)[C@H](CC(C)C)NC(=O)[C@H](CC(C)C)NC(=O)[C@@H](NC(=O)[C@H](CO)NC(=O)[C@H](Cc1ccc(O)cc1)NC(=O)[C@H](CC(=O)O)NC(=O)[C@H](CO)NC(=O)[C@@H](NC(=O)[C@H](Cc1ccccc1)NC(=O)[C@@H](NC(=O)CNC(=O)[C@H](CCC(=O)O)NC(=O)C(C)(C)NC(=O)[C@@H](N)Cc1ccc(O)cc1)[C@@H](C)O)[C@@H](C)O)[C@@H](C)CC)C(=O)N[C@@H](C)C(=O)N[C@@H](CCC(N)=O)C(=O)NC(C)(C)C(=O)N[C@@H](C)C(=O)N[C@@H](Cc1ccccc1)C(=O)N[C@H](C(=O)N[C@@H](CCC(=O)O)C(=O)N[C@@H](Cc1ccc(O)cc1)C(=O)N[C@@H](CC(C)C)C(=O)N[C@H](C(=O)N[C@@H](CCC(=O)O)C(=O)NCC(=O)NCC(=O)N1CCC[C@H]1C(=O)N[C@@H](CO)C(=O)N[C@@H](CO)C(=O)NCC(=O)N[C@@H](C)C(=O)N1CCC[C@H]1C(=O)N[C@@H](CCCCNC(=O)COCCOCCNC(=O)COCCOCCNC(=O)CC[C@H](NC(=O)CCCCCCCCCCCCCCCCCCC(=O)O)C(=O)O)C(=O)N1CCC[C@H]1C(=O)N[C@@H](CO)C(N)=O)[C@@H](C)CC)[C@@H](C)CC) [Example 46]	0.0852	133	13.4
Y[Aib]EGTFTSDYSILLDKIAQ[Aib]AFIEYLIEGGPSSGAPPPK([AEEA-AEEA-γGlu-C20 diacid])-NH2 (N-terminus assumed; SMILES CC[C@H](C)[C@H](NC(=O)[C@H](CCCCN)NC(=O)[C@H](CC(=O)O)NC(=O)[C@H](CC(C)C)NC(=O)[C@H](CC(C)C)NC(=O)[C@@H](NC(=O)[C@H](CO)NC(=O)[C@H](Cc1ccc(O)cc1)NC(=O)[C@H](CC(=O)O)NC(=O)[C@H](CO)NC(=O)[C@@H](NC(=O)[C@H](Cc1ccccc1)NC(=O)[C@@H](NC(=O)CNC(=O)[C@H](CCC(=O)O)NC(=O)C(C)(C)NC(=O)[C@@H](N)Cc1ccc(O)cc1)[C@@H](C)O)[C@@H](C)O)[C@@H](C)CC)C(=O)N[C@@H](C)C(=O)N[C@@H](CCC(N)=O)C(=O)NC(C)(C)C(=O)N[C@@H](C)C(=O)N[C@@H](Cc1ccccc1)C(=O)N[C@H](C(=O)N[C@@H](CCC(=O)O)C(=O)N[C@@H](Cc1ccc(O)cc1)C(=O)N[C@@H](CC(C)C)C(=O)N[C@H](C(=O)N[C@@H](CCC(=O)O)C(=O)NCC(=O)NCC(=O)N1CCC[C@H]1C(=O)N[C@@H](CO)C(=O)N[C@@H](CO)C(=O)NCC(=O)N[C@@H](C)C(=O)N1CCC[C@H]1C(=O)N1CCC[C@H]1C(=O)N1CCC[C@H]1C(=O)N[C@@H](CCCCNC(=O)COCCOCCNC(=O)COCCOCCNC(=O)CC[C@H](NC(=O)CCCCCCCCCCCCCCCCCCC(=O)O)C(=O)O)C(N)=O)[C@@H](C)CC)[C@@H](C)CC) [Example 48]	0.074	111	15.7
Y[Aib]EGTFTSDYSILLDKIAQ[Aib]AFIEYLIEGGPSSGAK([AEEA-AEEA-γGlu-C20 diacid])PPS-NH2 (N-terminus assumed; SMILES CC[C@H](C)[C@H](NC(=O)[C@H](CCCCN)NC(=O)[C@H](CC(=O)O)NC(=O)[C@H](CC(C)C)NC(=O)[C@H](CC(C)C)NC(=O)[C@@H](NC(=O)[C@H](CO)NC(=O)[C@H](Cc1ccc(O)cc1)NC(=O)[C@H](CC(=O)O)NC(=O)[C@H](CO)NC(=O)[C@@H](NC(=O)[C@H](Cc1ccccc1)NC(=O)[C@@H](NC(=O)CNC(=O)[C@H](CCC(=O)O)NC(=O)C(C)(C)NC(=O)[C@@H](N)Cc1ccc(O)cc1)[C@@H](C)O)[C@@H](C)O)[C@@H](C)CC)C(=O)N[C@@H](C)C(=O)N[C@@H](CCC(N)=O)C(=O)NC(C)(C)C(=O)N[C@@H](C)C(=O)N[C@@H](Cc1ccccc1)C(=O)N[C@H](C(=O)N[C@@H](CCC(=O)O)C(=O)N[C@@H](Cc1ccc(O)cc1)C(=O)N[C@@H](CC(C)C)C(=O)N[C@H](C(=O)N[C@@H](CCC(=O)O)C(=O)NCC(=O)NCC(=O)N1CCC[C@H]1C(=O)N[C@@H](CO)C(=O)N[C@@H](CO)C(=O)NCC(=O)N[C@@H](C)C(=O)N[C@@H](CCCCNC(=O)COCCOCCNC(=O)COCCOCCNC(=O)CC[C@H](NC(=O)CCCCCCCCCCCCCCCCCCC(=O)O)C(=O)O)C(=O)N1CCC[C@H]1C(=O)N1CCC[C@H]1C(=O)N[C@@H](CO)C(N)=O)[C@@H](C)CC)[C@@H](C)CC) [Example 45]	0.0463	11.1	5.65
